We go through one molecule from patent US20220396619A1 (Eli Lilly, published 2022).

For orientation: EC50 means the concentration giving half of the maximal effect. As usually defined, the Kd is a measure of binding affinity in units of concentration. By koff is commonly meant the rate constant with which the complex falls apart. Broadly, the kon is a measure of how fast the partners come together.

Test [1] has as its target T1, Human CD200R short isoform (human, UniProt Q8TD46 46-348).
T1 construct: Stably expressed on CHO cells; also called human CD200R short isoform on CHO cells
T1 sequence: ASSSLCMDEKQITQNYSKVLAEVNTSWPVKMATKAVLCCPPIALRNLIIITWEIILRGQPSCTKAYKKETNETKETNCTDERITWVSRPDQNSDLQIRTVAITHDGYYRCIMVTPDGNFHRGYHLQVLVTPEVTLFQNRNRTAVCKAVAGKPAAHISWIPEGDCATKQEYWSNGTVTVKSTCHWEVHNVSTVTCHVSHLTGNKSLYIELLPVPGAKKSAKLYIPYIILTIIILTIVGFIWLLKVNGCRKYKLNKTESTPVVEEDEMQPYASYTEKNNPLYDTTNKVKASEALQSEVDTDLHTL
The test is described as follows: flow cytometry on CHO cells expressing the receptor; midpoint of titration, one-site saturation fit. As to the method: (§1) To perform flow cytometry, CD200R-expressing CHO cells are counted using a Vicell counter and pelleted by centrifugation at 1200 RPM, aspirated and resuspended in phosphate buffered saline (PBS). Cells are counted again and after another centrifugation are adjusted to 10⁶ cells/mL in flow cytometry wash buffer (PBS w/10% NGS & 2% FBS & 0.05% NaN₃) with Fc block (BD Biosciences). Cells are blocked on ice for 15 minutes. Next the tubes are centrifuged, aspirated, and washed once with cold wash buffer. After the wash, the cells are adjusted to 10⁶ cells/mL in wash buffer and plated at […] (50 μL) in a 96-well tissue culture plate (Corning 3799). Antibody A is titrated (1:3 dilutions) on the 96-well polystyrene plates (Corning 3879) starting at 30 μg/mL (final concentration) in cold wash buffer. Next, Antibody A is transferred at 50 μL/well into the Corning 3799 plate containing cells. The plates are incubated on ice for 45 minutes then washed twice with 150 μL cold wash buffer. Next, 100 μL secondary Goat anti-human IgG Fc-PE (Jackson Cat. No. 109-116-098 or Jackson Cat. No. 109-116-088) is added at a 1:500 or 1:400 dilution in wash buffer and incubated for 45 minutes on ice. Plates are washed twice and 200 μL propidium iodide (1:1000 dilution in wash buffer; Molecular Probes Cat. No. P3566) is added as the cell viability stain. The plates are covered with foil on ice. Flow cytometry is then performed using a Fortessa instrument acquiring with FACS Diva software (both from Becton Dickinson) and analyzing with FlowJo (version 10.5.3).
(§2) Antibody A is tested for its binding to recombinantly expressed isoforms of both human and cynomolgus monkey CD200R and the related activating cynomolgus monkey CD200RLa protein on Chinese Hamster Ovary (CHO) cell line surfaces using flow cytometry. The antibody is titrated onto CHO cells expressing the polypeptide of interest. The flow cytometry binding curves are fit using the one-site saturation binding model in GraphPad Prism.
In general terms: A flow cytometer gives signals particle by particle.

Test [2] addresses T2, Cynomolgus monkey CD200R long isoform (cynomolgus monkey).
T2 construct: Stably expressed on CHO cells; also called cynomolgus monkey CD200R long isoform on CHO cells
T2 chain: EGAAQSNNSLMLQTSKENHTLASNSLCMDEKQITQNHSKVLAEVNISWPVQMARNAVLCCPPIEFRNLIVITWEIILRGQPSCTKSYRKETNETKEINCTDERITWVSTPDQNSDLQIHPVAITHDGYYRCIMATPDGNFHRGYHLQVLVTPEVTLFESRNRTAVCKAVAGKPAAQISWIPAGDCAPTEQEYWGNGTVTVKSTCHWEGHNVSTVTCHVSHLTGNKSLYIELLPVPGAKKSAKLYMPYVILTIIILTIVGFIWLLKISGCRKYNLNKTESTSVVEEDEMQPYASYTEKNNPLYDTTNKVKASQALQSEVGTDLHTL
The description is as above. How it is done: as §1, §2

The target of test [3] is T3, Cynomolgus monkey CD200RLa (cynomolgus monkey).
T3 construct: also called cynoCD200RLa
T3 chain: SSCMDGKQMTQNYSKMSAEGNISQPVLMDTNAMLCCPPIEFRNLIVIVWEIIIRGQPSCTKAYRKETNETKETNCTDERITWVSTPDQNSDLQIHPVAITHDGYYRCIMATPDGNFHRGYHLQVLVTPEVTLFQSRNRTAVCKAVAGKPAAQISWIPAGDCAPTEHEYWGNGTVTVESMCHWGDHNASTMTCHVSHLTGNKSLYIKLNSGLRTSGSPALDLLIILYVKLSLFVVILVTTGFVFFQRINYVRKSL
The description is as above. As to the method: as §1, §2

Test [4] addresses T4, Human CD200R long isoform (human, UniProt Q8TD46 25-348).
T4 construct: Stably expressed on CHO cells; also called human CD200R long isoform on CHO cells
T4 chain: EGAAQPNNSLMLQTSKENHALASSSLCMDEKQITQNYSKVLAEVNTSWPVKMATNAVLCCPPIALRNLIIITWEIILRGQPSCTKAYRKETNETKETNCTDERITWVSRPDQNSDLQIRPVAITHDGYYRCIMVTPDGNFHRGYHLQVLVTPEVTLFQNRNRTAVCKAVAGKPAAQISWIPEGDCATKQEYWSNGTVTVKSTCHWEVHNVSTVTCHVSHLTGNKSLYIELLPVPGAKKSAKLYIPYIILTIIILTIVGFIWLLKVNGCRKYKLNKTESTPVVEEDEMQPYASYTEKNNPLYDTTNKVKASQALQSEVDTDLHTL
The description is as above. How it is done: as §1, §2

The target of test [5] is T5, soluble cynomolgus monkey CD200R long isoform ECD-His polypeptide (cynomolgus monkey).
T5 construct: Expressed in HEK293 or CHO cells; also called cynoCD200R long isoform ECD-His; cynoCD200R-ECD long isoform-His
T5 chain: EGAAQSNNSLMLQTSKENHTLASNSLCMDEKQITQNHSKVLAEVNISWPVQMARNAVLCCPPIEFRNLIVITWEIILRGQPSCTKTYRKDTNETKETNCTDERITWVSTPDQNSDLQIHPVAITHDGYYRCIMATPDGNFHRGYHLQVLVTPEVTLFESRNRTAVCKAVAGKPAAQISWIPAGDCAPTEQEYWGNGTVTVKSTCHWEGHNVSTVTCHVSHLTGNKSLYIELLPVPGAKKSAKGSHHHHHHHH
Nature of the test: SPR (Biacore T200), antibody captured on Protein A, receptor ECD-His as analyte, 37 C, n = 3. An excerpt:
(§3) A BIACORE™ T200 (GE Healthcare, Piscataway, N.J.) is used to measure the binding kinetics and affinities of Antibody A to soluble human CD200R long isoform extracellular domain (ECD)-His polypeptide (SEQ ID NO: 17) (R&D Systems Cat. No. 10053-CD-050) and soluble cynomolgus monkey CD200R long isoform ECD-His polypeptide (SEQ ID NO: 19). Cynomolgus monkey CD200R ECD long isoform-His is expressed in HEK293 or CHO cells and purified using Ni SEPHAROSE™ excel column (GE Healthcare Life Sciences) and size exclusion chromatography.
(§4) A Series S CM4 chip (GE Healthcare Ca. No. BR-1005-34) is prepared using the manufacturer's EDC/NHS amine coupling method (GE Healthcare Cat. No. BR-1000-50). Briefly, the surfaces of all 4 flow cells are activated by injecting a 1:1 mixture of EDC/NHS for 7 minutes at 10 μL/minute. Protein A (Calbiochem Cat. No. 539202) is diluted to 100 μg/mL in 10 mM acetate pH 4.5 buffer and immobilized for approximately 400 RU onto all 4 flow cells by 7 minute injection at a flow rate of 10 μL/minute. Un-reacted sites are blocked with a 7 minute injection of ethanolamine at 10 μL/minute. Injections of 2×10 μL of glycine pH 1.5 are used to remove any non-covalently associated protein. Running buffer is 1× HBS-EP+ (10 mM HEPES, 150 mM NaCl, 0.05% Tween-20, pH 7.6, Teknova Cat. No. H8022).
(§5) Binding is evaluated using multi-cycle kinetics by an antibody capture method. Samples are diluted in 1× HBS-EP+ running buffer with 0.25% IgG free BSA (Jackson Immuno Research Cat. No. 001-000-161). Each cycle is performed at 37° C. at a flow rate of 20 μL/min for antibody capture to the Protein A chip and 30 μL/min for analyte association and dissociation.
(In SPR one partner is held on a chip, and binding of the other changes the refractive index at the surface.)

For test [6], the target named is T6, soluble human CD200R long isoform extracellular domain (ECD)-His polypeptide (human, UniProt Q8TD46 29-265).
T6 construct: Bought from R&D Systems, Cat. No. 10053-CD-050; also called Human CD200R long isoform ECD-His; human CD200R-ECD long isoform-His
T6 sequence: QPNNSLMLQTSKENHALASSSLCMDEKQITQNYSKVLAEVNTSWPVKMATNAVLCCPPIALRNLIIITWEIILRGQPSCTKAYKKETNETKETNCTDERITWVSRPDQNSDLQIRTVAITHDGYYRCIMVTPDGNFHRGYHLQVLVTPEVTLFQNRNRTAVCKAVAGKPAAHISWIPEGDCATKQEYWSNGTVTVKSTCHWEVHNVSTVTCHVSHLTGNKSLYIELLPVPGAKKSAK
Described as above.
Text: as §3, §4, §5

B1: Antibody A (antibody, human IgG4 S228P, kappa, F234A L235A, V domains shown)
VH: QVQLVESGGGVVQPGRSLRLSCAASGFTFSRYGMHWVRQAPGKGLEWVAVIPYDGSNKYYADSVKGRFTISRDISKNTLYLQMNSLRAEDTAVYYCARRGYYDSSGYYYFYYGMDVWGQGTTVTVSS
VL: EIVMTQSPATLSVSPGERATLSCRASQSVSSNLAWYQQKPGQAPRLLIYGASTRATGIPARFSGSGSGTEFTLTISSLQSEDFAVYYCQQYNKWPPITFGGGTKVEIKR
notes: The control used beside it is IgG4-PAA; also called Anti-human CD200R (Antibody A)
Turning to B1, the EC50 in test [1] was 1.1 µg/mL; in test [2] it was 2.3 µg/mL; in test [3] it was 3.7 µg/mL; in test [4], 3.2 µg/mL. Further, the values for the Kd in test [5] and in test [6] were 93.2 nM and 34.8 nM, respectively. Also, the Stoichiometry in test [5] turned out to be 2.6; in test [6], 1.9. Moreover, the off-rate constant (koff) in test [5] worked out at 0.00056 s⁻¹; in test [6], 0.00016 s⁻¹. The association rate constant (kon) stood at 6200 M⁻¹ s⁻¹ in test [5] and 4700 M⁻¹ s⁻¹ in test [6].
